Among the data in publication doi:10.1101/2024.02.25.581951 are stoichiometry N values, retold here.

This experiment deals with T1, IRF3 (mouse (endogenous in mouse ESCs)), P70671.
T1 chain: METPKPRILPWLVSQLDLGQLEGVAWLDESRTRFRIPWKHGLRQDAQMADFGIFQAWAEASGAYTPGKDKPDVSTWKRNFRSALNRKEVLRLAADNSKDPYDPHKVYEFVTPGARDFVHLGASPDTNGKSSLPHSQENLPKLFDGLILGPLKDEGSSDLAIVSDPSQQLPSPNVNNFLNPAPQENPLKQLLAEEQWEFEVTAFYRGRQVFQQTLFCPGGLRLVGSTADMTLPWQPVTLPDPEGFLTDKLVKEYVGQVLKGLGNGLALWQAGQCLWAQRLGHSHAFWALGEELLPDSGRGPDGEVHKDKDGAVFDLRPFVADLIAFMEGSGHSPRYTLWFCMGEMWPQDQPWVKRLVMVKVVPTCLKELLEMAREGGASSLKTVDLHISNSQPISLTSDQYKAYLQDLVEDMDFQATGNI
The experiment is described as follows: native gel or EMSA. The following applies: remark: other sources report otherwise. In general terms: A gel shift assay detects complexes by their altered migration in electrophoresis.

B1: IRF3, P70671 1-419 (natural protein)
chain: T1 chain
In the case of B1, the stoichiometry N was determined as 2.

Usually stoichiometry N stands for a count of units in the complex or per binding partner.
